Measurements from paper PMC6406002, “Comparison of the functional properties of trimeric and monomeric CaiT of Escherichia coli” (Scientific Reports, 2019).

Legend:
[1] = system: T1, C[N+](C)(C)C[C@H](O)CC(=O)O; test: purified protein; format: biochemical, Escherichia coli; conditions: labelled compound, proteoliposomes preloaded with 10 mM L-carnitine, potassium phosphate pH 7.5, 25 °C
T1 construct: full-length with C-terminal 6His tag (pET21a), expressed in E. coli JW0039 (delta caiT), Ni-NTA purified; homotrimer (D288A and D288R mostly monomeric); DDM-solubilized or in proteoliposomes

[2] = target: CaiT-M295E (E. coli) (UniProt P31553); test: native gel or EMSA; blue native PAGE, 4–16.5% gradient gel, 5 µg purified protein per lane, in detergent solution
[3] = target: CaiT-R299A (E. coli) (UniProt P31553); test: as above

Substance: CaiT (Escherichia coli K-12; D288A)
- Km ([1]; mostly monomeric variant): 114.1 ± 17.9 µM
- Vmax ([1]; mostly monomeric variant): 1.86 µmol/min/mg

Substance: CaiT-M295E (from UniProt P31553 1-504) (natural protein)
- percent of the protein in the monomeric state [2]: > 80%

Substance: CaiT (Escherichia coli K-12)
- Km [1]: 45.3 ± 6.9 µM
- Vmax [1]: 2.13 µmol/min/mg

Substance: CaiT-R299A (from UniProt P31553 1-504) (natural protein)
- percent of the protein in the monomeric state [3]: > 80%
